Test results: publication PMC5761661 (Biochemistry, 2017)
Where two headings read alike, the source gives them in different places.

How the values were obtained:
[1] = target: IpaB^28–226-Alexa568 (Shigella flexneri); assay: fluorescence polarisation
[2] = target: IpaD (invasion plasmid antigen D) (Shigella flexneri, UniProt P18013); assay: fluorescence polarization, single site saturation fit; type: binding; details: read-out: Kd (μM) ± SD ^a; labelled compound; 25 nM FITC-DOC, 0-30 μM IpaD, PBS, 23 °C, 30 min
[3] = target: IpaB^28–226-Alexa568 (Shigella flexneri); assay: fluorescence polarisation; remark: listed apart in the source

Substance	Kd [1] [nM]	Kd [2] [µM]	Kd [3] [nM]
Wild-type IpaD (invasion plasmid antigen D) (from UniProt P18013 1-332) (natural protein)	2000	–	–
FITC-deoxycholate	–	9.3 ± 1.8	–
IpaD D144A/N146A/Y149A triple mutant (from UniProt P18013 1-332) (natural protein)	2200	–	7400
IpaD Y149A (from UniProt P18013 1-332) (natural protein)	500	–	–
